For assay [1], the target named is T1, human interleukin 6 (hIL-6) (UniProt P05231 30-212). Briefly: ELISA.
Assay [2] addresses T1, human interleukin 6 (hIL-6). Briefly: ELISA. The source holds these as a separate data set.

Read-outs that look alike come from different tables or passages of the source.

T1 sequence (P05231 30-212): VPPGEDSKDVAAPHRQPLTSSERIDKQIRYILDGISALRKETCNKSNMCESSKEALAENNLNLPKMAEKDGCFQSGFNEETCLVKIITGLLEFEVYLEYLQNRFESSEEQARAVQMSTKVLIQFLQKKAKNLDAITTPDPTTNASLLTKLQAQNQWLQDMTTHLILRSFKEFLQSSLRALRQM

B1: hIL-6-binding VHH JYK-D12 (Trx/JYK-D12/E) (VHH)
VHH: QLQLVESGGGLVQPGGSLGLSCAASGFTLAYYGIGWFRQAPGKEREGVACISSSDLSTYYADSVKGRFTISRDNAKDTVYLQMNSLKPEDTAVYYCAAGTWDLKFGYSRSNCVRSYEYDYWGQGTQVTVSS
Take B1: in assay [1], the EC50 stood at 0.324 nM.

B2: hIL-6-binding VHH JYK-H9 (Trx/JYK-H9/E) (VHH)
VHH: QLQLVETGGGLVQPGGSLRLSCAASGFTLDYYAIGWFRQAPGKEREGVSCLSSSDRSTYYVDSVKGRFTISRDDDKNTAYLQMNSLKPEDTATYYCAAGTWDLKWGYNISACVGSYEYDYWGQGTQVTVSS
The molecule B2 showed an EC50 in assay [1] of 0.811 nM.

B3: hIL-6-binding VHH JYK-A1 (Trx/JYK-A1/E) (VHH)
VHH: QLQLAETGGGLVQPGGSLRLSCAASGFTLDYYAVGWFRQAPGKEREGISCISSSDLKTYYADSVKGRFTISRDYAKSTVSLQMNSLKPEDTGVYYCAAGTWDLKFGYNISACVGSYEYDYWDQGTQVTVSS
In the case of B3, a half-maximal effect in assay [1] (EC50) was put at 0.795 nM.

B4: hIL-6-binding VHH JYK-F12 (Trx/JYK-F12/E) (VHH)
VHH: QVQLAETGGGSVQAGGSLTLSCAASGRTFSSRAMGWFRQAPGKEREFVAVISWTGSPYYTDSVKGRFTISRDDAKNTVYLQMNSLKPEDTAVYYCAATSEHVMLVVTTRGGYDYWGQGTQVTVSS
As to B4, the concentration for a half-maximal effect (EC50) in assay [1] worked out at 14.4 nM.

B5: hIL-6-binding VHH JYK-A9 (Trx/JYK-A9/E) (VHH)
VHH: QVQLVESGGGLVQAGDSLTLSCAASGRPFSSFAMGWFRQAPGKEREFVAAITWSRGTTHYADSVKGRFTISGDNAKNTVFLQMNSLKPEDTAVYYCAAADGWKVVSTASPAYDYWGQGTQVTVSS
Molecule B5 had an EC50 in assay [1] of 27.7 nM.

B6: JYK-D12/JYK-D12 homodimer (VHH)
chain: QVQLVESGGGLVQPGGSLGLSCAASGFTLAYYGIGWFRQAPGKEREGVACISSSDLSTYYADSVKGRFTISRDNAKDTVYLQMNSLKPEDTAVYYCAAGTWDLKFGYSRSNCVRSYEYDYWGQGTQVTVSSGGGGSGGGGSGGGGSQVQLVESGGGLVQPGGSLGLSCAASGFTLAYYGIGWFRQAPGKEREGVACISSSDLSTYYADSVKGRFTISRDNAKDTVYLQMNSLKPEDTAVYYCAAGTWDLKFGYSRSNCVRSYEYDYWGQGTQVTVSS
On to B6, for which, in assay [2], the concentration giving a half-maximal response (EC50) is 0.0842 nM.

As a reminder, the EC50 is the concentration that produces a half-maximal response.

The values above are taken from patent publication US20240083999A1 (published 2024).
